{"source": "paper PMC5994540", "proteins": {"B1": {"name": "GluN3A subunit: GluN3A-12N→12Q (protein)", "parent chain": "MRRLSLWWLLSRVCLLLPPPCALVLAGVPSSSSHPQPCQILKRIGHAVRVGAVHLQPWTTAPRAASRAQEGGRAGAQRDDPESGTWRPPAPSQGARWLGSALHGRGPPGSRKLGEGAGAETLWPRDALLFAVENLNRVEGLLPYNLSLEVVMAIEAGLGDLPLMPFSSPSSPWSSDPFSFLQSVCHTVVVQGVSALLAFPQSQGEMMELDLVSSVLHIPVLSIVRHEFPRESQNPLHLQLSLENSLSSDADVTVSILTMNNWYNFSLLLCQEDWNITDFLLLTENNSKFHLESVINITANLSSTKDLLSFLQVQMDNIRNSTPTMVMFGCDMDSIRQIFEMSTQFGLSPPELHWVLGDSQNVEELRTEGLPLGLIAHGKTTQSVFEYYVQDAMELVARAVATATMIQPELALLPSTMNCMDVKTTNLTSGQYLSRFLANTTFRGLSGSIKVKGSTIISSENNFFIWNLQHDPMGKPMWTRLGSWQGGRIVMDSGIWPEQAQRHKTHFQHPNKLHLRVVTLIEHPFVFTREVDDEGLCPAGQLCLDPMTNDSSMLDRLFSSLHSSNDTVPIKFKKCCYGYCIDLLEQLAEDMNFDFDLYIVGDGKYGAWKNGHWTGLVGDLLSGTANMAVTSFSINTARSQVIDFTSPFFSTSLGILVRTRDTAAPIGAFMWPLHWTMWLGIFVALHITAIFLTLYEWKSPFGMTPKGRNRNKVFSFSSALNVCYALLFGRTAAIKPPKCWTGRFLMNLWAIFCMFCLSTYTANLAAVMVGEKIYEELSGIHDPKLHHPSQGFRFGTVRESSAEDYVRQSFPEMHEYMRRYNVPATPDGVQYLKNDPEKLDAFIMDKALLDYEVSIDADCKLLTVGKPFAIEGYGIGLPPNSPLTSNISELISQYKSHGFMDVLHDKWYKVVPCGKRSFAVTETLQMGIKHFSGLFVLLCIGFGLSILTTIGEHIVHRLLLPRIKNKSKLQYWLHTSQRFHRALNTSFVEEKQPRSKTKRVEKSRWRRWTCKTEGDSELSLFPRSNLGPQQLMVWNTSNLSHDNQRKYIFNDEEGQNQLGTQAHQDIPLPQRRRELPASLTTNGKADSLNVTRSSVIQELSELEKQIQVIRQELQLAVSRKTELEEYQKTNRTCES"}, "B2": {"name": "GluN3A subunit: N275Q (protein)", "parent chain": "B1 parent chain"}, "B3": {"name": "GluN3A subunit: N320Q (protein)", "parent chain": "B1 parent chain"}, "B4": {"name": "GluN3A subunit: swainsonine (protein)", "parent chain": "B1 parent chain"}, "B5": {"name": "GluN3A subunit: DNJ (protein)", "parent chain": "B1 parent chain"}, "B6": {"name": "GluN3A subunit: N300Q (protein)", "parent chain": "B1 parent chain"}, "B7": {"name": "GluN3A subunit: N549Q (protein)", "parent chain": "B1 parent chain"}, "B8": {"name": "GluN3A subunit: N565Q (protein)", "parent chain": "B1 parent chain"}, "B9": {"name": "GluN3A subunit: GluN3A-1/2N→Q (protein)", "parent chain": "B1 parent chain"}, "B10": {"name": "GluN3A subunit: N285Q (protein)", "parent chain": "B1 parent chain"}, "B11": {"name": "GluN3A subunit: DPAGT1-CDG (protein)", "parent chain": "B1 parent chain"}, "B12": {"name": "GluN3A subunit: DMM (protein)", "parent chain": "B1 parent chain"}, "B13": {"name": "GluN3A subunit: GluN3A-1/4N→Q (protein)", "parent chain": "B1 parent chain"}, "B14": {"name": "GluN3A subunit: N439Q (protein)", "parent chain": "B1 parent chain"}, "B15": {"name": "GluN3A subunit: PNGase F (protein)", "parent chain": "B1 parent chain"}, "B16": {"name": "GluN3A subunit: ALG8-CDG (protein)", "parent chain": "B1 parent chain"}, "B17": {"name": "GluN3A subunit: N426Q (protein)", "parent chain": "B1 parent chain"}, "B18": {"name": "GluN3A subunit: GluN3A-2/2N→Q (protein)", "parent chain": "B1 parent chain"}, "B19": {"name": "GluN3A subunit: N886Q (protein)", "parent chain": "B1 parent chain"}, "B20": {"name": "GluN3A subunit: tunicamycin (protein)", "parent chain": "B1 parent chain"}, "B21": {"name": "GluN3A subunit: N296Q (protein)", "parent chain": "B1 parent chain"}, "B22": {"name": "GluN3A subunit: kifunensine (protein)", "parent chain": "B1 parent chain"}}, "key": {"[1]": {"assay": "spine/shaft GFP fluorescence ratio, hippocampal neurons", "details": "glycan lost; control: wild-type GluN3A"}, "[2]": {"assay": "surface/total immunofluorescence, COS-7, with GluN1-4a", "details": "glycan lost; control: wild-type GluN1/GluN3A"}, "[3]": {"assay": "surface/total GFP immunofluorescence, hippocampal neuron dendrites", "details": "glycan lost; control: wild-type GluN3A"}, "[4]": {"assay": "surface immunofluorescence, GluN1/GluN3A in COS-7", "details": "control: untreated"}, "[5]": {"assay": "surface/total GFP immunofluorescence, GFP-GluN3A in hippocampal neurons", "details": "control: untreated"}, "[6]": {"assay": "surface biotinylation, endogenous GluN3A, rat hippocampal neurons", "details": "control: untreated"}, "[7]": {"assay": "surface immunofluorescence, GluN1/GluN3A in human CDG patient fibroblasts", "details": "glycan lost; control: control fibroblasts"}, "[8]": {"assay": "whole-cell patch clamp, 500 μM glycine, HEK293", "details": "glycan lost; control: wild-type GluN1/GluN3A, untreated"}}, "data": [{"protein": "B1", "values": [{"measurement": "localisation_or_trafficking", "setting": "[1]", "result": "decreases"}, {"measurement": "localisation_or_trafficking", "setting": "[2]", "result": "abolishes"}, {"measurement": "localisation_or_trafficking", "setting": "[3]", "result": "decreases"}]}, {"protein": "B2", "values": [{"measurement": "localisation_or_trafficking", "setting": "[2]", "result": "no change"}]}, {"protein": "B3", "values": [{"measurement": "localisation_or_trafficking", "setting": "[2]", "result": "no change"}]}, {"protein": "B4", "values": [{"measurement": "localisation_or_trafficking", "setting": "[4]; glycan changed form", "result": "no change"}, {"measurement": "localisation_or_trafficking", "setting": "[5]; glycan changed form", "result": "no change"}, {"measurement": "localisation_or_trafficking", "setting": "[6]; glycan changed form", "result": "no change"}]}, {"protein": "B5", "values": [{"measurement": "localisation_or_trafficking", "setting": "[4]; glycan changed form", "result": "no change"}, {"measurement": "localisation_or_trafficking", "setting": "[5]; glycan changed form", "result": "no change"}, {"measurement": "localisation_or_trafficking", "setting": "[6]; glycan changed form", "result": "no change"}]}, {"protein": "B6", "values": [{"measurement": "localisation_or_trafficking", "setting": "[2]", "result": "no change"}]}, {"protein": "B7", "values": [{"measurement": "localisation_or_trafficking", "setting": "[2]", "result": "no change"}]}, {"protein": "B8", "values": [{"measurement": "localisation_or_trafficking", "setting": "[2]", "result": "no change"}]}, {"protein": "B9", "values": [{"measurement": "localisation_or_trafficking", "setting": "[2]", "result": "decreases"}, {"measurement": "localisation_or_trafficking", "setting": "[3]", "result": "decreases"}]}, {"protein": "B10", "values": [{"measurement": "localisation_or_trafficking", "setting": "[2]", "result": "no change"}]}, {"protein": "B11", "values": [{"measurement": "localisation_or_trafficking", "setting": "[7]", "result": "no change"}]}, {"protein": "B12", "values": [{"measurement": "localisation_or_trafficking", "setting": "[4]; glycan changed form", "result": "no change"}, {"measurement": "localisation_or_trafficking", "setting": "[5]; glycan changed form", "result": "no change"}, {"measurement": "localisation_or_trafficking", "setting": "[6]; glycan changed form", "result": "no change"}]}, {"protein": "B13", "values": [{"measurement": "localisation_or_trafficking", "setting": "[1]", "result": "decreases"}, {"measurement": "other: channel desensitisation (τw), other: τw of desensitization", "setting": "[8]", "result": "no change"}, {"measurement": "localisation_or_trafficking", "setting": "[2]", "result": "decreases"}, {"measurement": "localisation_or_trafficking", "setting": "[3]", "result": "decreases"}]}, {"protein": "B14", "values": [{"measurement": "localisation_or_trafficking", "setting": "[2]", "result": "no change"}]}, {"protein": "B15", "values": [{"measurement": "other: channel desensitisation (τw), other: τw of desensitization", "setting": "[8]", "result": "no change"}]}, {"protein": "B16", "values": [{"measurement": "localisation_or_trafficking", "setting": "[7]", "result": "decreases"}]}, {"protein": "B17", "values": [{"measurement": "localisation_or_trafficking", "setting": "[2]", "result": "no change"}]}, {"protein": "B18", "values": [{"measurement": "localisation_or_trafficking", "setting": "[2]", "result": "no change"}, {"measurement": "localisation_or_trafficking", "setting": "[3]", "result": "no change"}]}, {"protein": "B19", "values": [{"measurement": "localisation_or_trafficking", "setting": "[2]", "result": "no change"}]}, {"protein": "B20", "values": [{"measurement": "localisation_or_trafficking", "setting": "[4]; glycan lost", "result": "decreases"}, {"measurement": "localisation_or_trafficking", "setting": "[5]; glycan lost", "result": "decreases"}, {"measurement": "localisation_or_trafficking", "setting": "[6]; glycan lost", "result": "decreases"}]}, {"protein": "B21", "values": [{"measurement": "localisation_or_trafficking", "setting": "[2]", "result": "no change"}]}, {"protein": "B22", "values": [{"measurement": "localisation_or_trafficking", "setting": "[4]; glycan changed form", "result": "no change"}, {"measurement": "localisation_or_trafficking", "setting": "[5]; glycan changed form", "result": "no change"}, {"measurement": "localisation_or_trafficking", "setting": "[6]; glycan changed form", "result": "no change"}]}]}
